The results in this text go back to the supplement of paper PMC7877785.

± gives the uncertainty stated by the source.

The nature of this series: self-splicing fitness, log relative to wild type (ln ratio); higher = more splicing; Tetrahymena group I intron in knt gene, E. coli kanamycin selection, DiMSum; sequences stand for … in CUCUCU…GGAGGGAAAAGUUAUCAGGCAUGCACCUGGUAGCUAGUCUUUAAACCAAUAGAUUGCAUCGGUUUAAAAGGCAAGACCGUCAAAUUGCGGGAAAGGGGUCAACAGCCGUUCAGUACCAAGUCUCAGGGGAAACUUUGAGAUGGCCUUGCAAAGGGUAUGGUAAUAAGCUGACGGACAUGGUCCUAACCACGCAGCCAAGUCCUAAGUCAACAGAUCUUCUGUUGAUAUGGAUGCAGUUCACAGACUAAAUGUCGGUCGGGGAAGAUGUAUUCUUCUCAUAAGAUAUAGUCGGACCUCUCCUUAAUGGGAGCUAGCGGAUGAAGUGAUGCAACACUGGAGCCGCUGGGAACUAAUUUGUAUGCGAAAGUAUAUUGAUUAGUUUUGGAGUACUCGUGGUCG
The method in brief:
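DiMSum derived fitness as the error-weighted combination of fold changes across replicates, kanamycin versus no kanamycin, normalised to wild type. E. coli BL21(DE3) held the library, which randomised all eight P1ex-region intron nucleotides within the knt kanamycin-resistance gene on pET-22b(+). Six replicate transformations grew overnight at 37°C or 30°C on LB agar with or without 25 μg/mL kanamycin, also containing 100 μg/mL carbenicillin, 50 μM IPTG and 0.2% rhamnose, and pooled colonies were amplicon-sequenced on an Illumina HiSeq 2500.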

In the case of CAAAAGCAAUAUUACGUCUA, the “self-splicing fitness (ln)” value (30 °C) was -1.75 ± 0.097 and the “self-splicing fitness (ln)” value (37 °C) was -0.725 ± 0.083. For CAAAAGCAAUAUUACGUCUC, in that order: -3.38 ± 0.23 and -2.15 ± 0.2. On to CAAAAGCAAUAUUACGUGUC, for which the “self-splicing fitness (ln)” value by setting is: (30 °C) -3.51 ± 0.14; (37 °C) -1.41 ± 0.12.

Turning to CAACAGCAAUAUUACGAGAA, the “self-splicing fitness (ln)” value was -2.7 ± 0.39 (30 °C) and -0.546 ± 0.21 (37 °C). With CAACAGCAAUAUUACGAUGU, the “self-splicing fitness (ln)” value is, setting by setting: (30 °C) -2.57 ± 0.11; (37 °C) -1.62 ± 0.11. For CAACAGCAAUAUUACGCAAG the same measures were -1.48 ± 0.07 and -0.352 ± 0.085. In the case of CAACAGCAAUAUUACGCCCC, where the note is “37 °C”, the “self-splicing fitness (ln)” value was -0.283 ± 0.4. CAACAGCAAUAUUACGCGCC: the “self-splicing fitness (ln)” value (30 °C) was -1.54 ± 0.073 and the “self-splicing fitness (ln)” value (37 °C) is -1.43 ± 0.11. Consider CAACAGCAAUAUUACGCUAC, for which the “self-splicing fitness (ln)” value is -4.32 ± 0.24 (30 °C) and -2.3 ± 0.15 (37 °C). CAACAGCAAUAUUACGCUAU: the “self-splicing fitness (ln)” value reads like this: (30 °C) -3.29 ± 0.17; (37 °C) -2.25 ± 0.13.

Consider CAACAGCAAUAUUACGGUCC, for which the “self-splicing fitness (ln)” value was -2.56 ± 0.17 (30 °C) and -1.22 ± 0.16 (37 °C).

For the sequence CAACAGCAAUAUUACGUACC, the “self-splicing fitness (ln)” value by setting is: (30 °C) -2.7 ± 0.12; (37 °C) -0.824 ± 0.12. For the sequence CAACAGCAAUAUUACGUAUC, the “self-splicing fitness (ln)” value was -1.96 ± 0.16 (30 °C) and -2.75 ± 0.18 (37 °C). For CAACAGCAAUAUUACGUGCG the same measures were -0.886 ± 0.053 and -0.129 ± 0.074. CAACAGCAAUAUUACGUGUU: the “self-splicing fitness (ln)” value reads like this: (30 °C) -3.54 ± 0.11; (37 °C) -3.03 ± 0.15. Regarding CAAGAGCAAUAUUACGAAUG, the “self-splicing fitness (ln)” value (30 °C) is -2.34 ± 0.09 and the “self-splicing fitness (ln)” value (37 °C) is -1.79 ± 0.14.

For the sequence CAAGAGCAAUAUUACGACAA, the “self-splicing fitness (ln)” value by setting is: (30 °C) -0.348 ± 0.28; (37 °C) -1.43 ± 0.39. For the sequence CAAGAGCAAUAUUACGAGCG, the “self-splicing fitness (ln)” value (30 °C) was -0.536 ± 0.07 and the “self-splicing fitness (ln)” value (37 °C) is -0.728 ± 0.073. Turning to CAAGAGCAAUAUUACGAGCU, the “self-splicing fitness (ln)” value (30 °C) is -2.04 ± 0.28 and the “self-splicing fitness (ln)” value (37 °C) was -2.06 ± 0.37. With CAAGAGCAAUAUUACGAGUC, the “self-splicing fitness (ln)” value runs as follows: (30 °C) -2.88 ± 0.28; (37 °C) -0.209 ± 0.28. In the case of CAAGAGCAAUAUUACGCCAA, the “self-splicing fitness (ln)” value is -3.78 ± 0.4 (30 °C) and -2.68 ± 0.3 (37 °C).

Regarding CAAGAGCAAUAUUACGCCGC, the “self-splicing fitness (ln)” value was -2.67 ± 0.25 (30 °C) and -1.99 ± 0.26 (37 °C). Regarding CAAGAGCAAUAUUACGCCGG, the “self-splicing fitness (ln)” value (30 °C) is -2 ± 0.15 and the “self-splicing fitness (ln)” value (37 °C) is -1.35 ± 0.24. As for CAAGAGCAAUAUUACGCCUC, the “self-splicing fitness (ln)” value (30 °C) was -1.95 ± 0.33.

On to CAAGAGCAAUAUUACGCGAG, for which the “self-splicing fitness (ln)” value is -2.92 ± 0.2 (30 °C) and -2.11 ± 0.21 (37 °C).

On to CAAGAGCAAUAUUACGCUCC, for which the “self-splicing fitness (ln)” value (30 °C) was -2.23 ± 0.44. As to CAAGAGCAAUAUUACGCUUA, the “self-splicing fitness (ln)” value by setting is: (30 °C) -2.23 ± 0.17; (37 °C) -0.92 ± 0.15. Consider CAAGAGCAAUAUUACGGAGG, for which the “self-splicing fitness (ln)” value (30 °C) was -1.85 ± 0.083 and the “self-splicing fitness (ln)” value (37 °C) is -1.3 ± 0.13. Turning to CAAGAGCAAUAUUACGGGCC, under “37 °C”, the “self-splicing fitness (ln)” value was -2.71 ± 0.31. Still for that read-out and setting: to CAAGAGCAAUAUUACGGGCU belongs -2.6 ± 0.34.

Turning to CAAGAGCAAUAUUACGGUUA, the “self-splicing fitness (ln)” value is -2.21 ± 0.15 (30 °C) and -2.08 ± 0.18 (37 °C).

With CAAGAGCAAUAUUACGGUUG, the “self-splicing fitness (ln)” value runs as follows: (30 °C) -2.72 ± 0.12; (37 °C) -2.25 ± 0.18.

Take CAAGAGCAAUAUUACGUACA: the “self-splicing fitness (ln)” value by setting is: (30 °C) -3.1 ± 0.35; (37 °C) -1.89 ± 0.26. For the sequence CAAGAGCAAUAUUACGUGUA, the “self-splicing fitness (ln)” value was -3.48 ± 0.17 (30 °C) and -2.42 ± 0.17 (37 °C). As to CAAUAGCAAUAUUACGAAUU, the “self-splicing fitness (ln)” value reads like this: (30 °C) -3.51 ± 0.26; (37 °C) -2.23 ± 0.18.

Take CAAUAGCAAUAUUACGACCA: the “self-splicing fitness (ln)” value (37 °C) is -1.81 ± 0.41. Turning to CAAUAGCAAUAUUACGACCG, the “self-splicing fitness (ln)” value was -0.173 ± 0.12 (30 °C) and 0.201 ± 0.18 (37 °C). CAAUAGCAAUAUUACGACGG: the “self-splicing fitness (ln)” value by setting is: (30 °C) -0.109 ± 0.076; (37 °C) 0.524 ± 0.1. On to CAAUAGCAAUAUUACGACUU, for which the “self-splicing fitness (ln)” value was -3.35 ± 0.24 (30 °C) and -0.264 ± 0.23 (37 °C). For CAAUAGCAAUAUUACGAGAA, in that order: -3.83 ± 0.39 and -2.71 ± 0.3.
